Data on 2 molecules can be found in article PMC6393702.

Numbering of substitutions follows the chain as printed.

For the series, the target named is T1, His-Vfr (UniProt P55222 1-214).
T1 sequence: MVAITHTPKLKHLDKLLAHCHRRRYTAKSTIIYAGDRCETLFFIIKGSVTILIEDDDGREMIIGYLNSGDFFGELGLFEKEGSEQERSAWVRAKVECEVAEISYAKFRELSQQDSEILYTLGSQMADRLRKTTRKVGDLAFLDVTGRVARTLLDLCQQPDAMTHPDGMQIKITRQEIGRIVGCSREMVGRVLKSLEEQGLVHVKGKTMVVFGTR
The series can be described thus: EMSA. On the technique in general: Mobility shift assays separate free from complexed probe on a gel.

B1: Vfr CRE probe (dsDNA)
DNA 1: TCCACGACAATGTGCCTCGCTTGGAAGCTCACGCTCCTCACACAGACGAAAAC
DNA 2: GTTTTCGTCTGTGTGAGGAGCGTGAGCTTCCAAGCGAGGCACATTGTCGTGGA
On to B1, for which the binding result is “binds”.

B2: Vfr CRE-Δ probe (dsDNA)
DNA 1: B1 DNA 1 with T11C, G12C, T13C, G14A
DNA 2: B1 DNA 2 with C40T, A41G, C42G, A43G
Turning to B2, the binding result was “no binding”.
